IntAct's records for PubMed 29039417

B1: BBSome complex member BBS2 (Homo sapiens), Q9BXC9 (parent)
chain: MLLPVFTLKLRHKISPRMVAIGRYDGTHPCLAAATQTGKVFIHNPHTRNQHVSASRVFQSPLESDVSLLSINQAVSCLTAGVLNPELGYDALLVGTQTNLLAYDVYNNSDLFYREVADGANAIVLGTLGDISSPLAIIGGNCALQGFNHEGSDLFWTVTGDNVNSLALCDFDGDGKKELLVGSEDFDIRVFKEDEIVAEMTETEIVTSLCPMYGSRFGYALSNGTVGVYDKTSRYWRIKSKNHAMSIHAFDLNSDGVNELITGWSNGKVDARSDRTGEVIFKDNFSSAIAGVVEGDYRMDGHIQLICCSVDGEIRGYLPGTAEMRGNLMDTSAEQDLIRELSQKKQNLLLELRNYEENAKAELASPLNEADGHRGIIPANTRLHTTLSVSLGNETQTAHTELRISTSNDTIIRAVLIFAEGIFTGESHVVHPSIHNLSSSICIPIVPPKDVPVDLHLKAFVGYRSSTQFHVFESTRQLPRFSMYALTSLDPASEPISYVNFTIAERAQRVVVWLGQNFLLPEDTHIQNAPFQVCFTSLRNGGHLHIKIKLSGEITINTDDIDLAGDIIQSMASFFAIEDLQVEADFPVYFEELRKVLVKVDEYHSVHQKLSADMADHSNLIRSLLVGAEDARLMRDMKTMKSRYMELYDLNRDLLNGYKIRCNNHTELLGNLKAVNQAIQRAGRLRVGKPKNQVITACRDAIRSNNINTLFKIMRVGTASS
partner: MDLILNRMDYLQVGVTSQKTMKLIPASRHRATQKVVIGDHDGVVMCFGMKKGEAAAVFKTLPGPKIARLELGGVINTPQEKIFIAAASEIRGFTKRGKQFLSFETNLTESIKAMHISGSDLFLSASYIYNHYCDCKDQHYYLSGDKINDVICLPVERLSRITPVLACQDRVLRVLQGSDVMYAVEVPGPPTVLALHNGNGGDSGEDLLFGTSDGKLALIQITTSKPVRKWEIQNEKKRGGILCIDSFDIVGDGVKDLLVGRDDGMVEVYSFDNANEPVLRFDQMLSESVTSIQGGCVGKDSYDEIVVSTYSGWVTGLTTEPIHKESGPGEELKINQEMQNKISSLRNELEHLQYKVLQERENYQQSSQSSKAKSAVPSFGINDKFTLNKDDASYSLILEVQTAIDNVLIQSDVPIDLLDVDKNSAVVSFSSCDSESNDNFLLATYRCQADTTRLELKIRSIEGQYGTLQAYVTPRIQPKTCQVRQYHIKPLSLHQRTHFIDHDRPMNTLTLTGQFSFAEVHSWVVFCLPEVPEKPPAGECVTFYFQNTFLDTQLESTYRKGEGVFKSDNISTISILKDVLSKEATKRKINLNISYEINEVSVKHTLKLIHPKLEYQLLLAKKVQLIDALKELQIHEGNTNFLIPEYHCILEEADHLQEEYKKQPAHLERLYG

Variants of: B1
Settings: with BBS7, Q8IWZ6-2

Variant	effect of a mutation on the interaction
F423E	with no effect
L624E	with no effect
L624K	with no effect
I621K	with no effect
R539K	with no effect
Q532K	with no effect
N380E	disrupting interaction strength
L710A	with no effect
E522A	with no effect
E522K	with no effect
L387K	disrupting interaction strength
I660K	with no effect
S721K	with no effect
S721E	with no effect
Y498A	with no effect
L514A	with no effect
I526E	with no effect
S440F	disrupting interaction strength
M640E	with no effect
D585E	with no effect
P444E	with no effect
H428E	with no effect
T558E	with no effect
T558A	with no effect
P491E	with no effect
V600E	with no effect

Variant	effect of a mutation on the interaction
Y463E	with no effect
A364E	with no effect
S342A	with no effect
P521E	with no effect
R476A	with no effect
Q527K	with no effect
K712A	with no effect
I548A	with no effect
A485E	with no effect
A485S	disrupting interaction strength
T381E	with no effect
L519E	disrupting interaction strength
D454A	with no effect
P452E	with no effect
V415A	with no effect
M614A	with no effect
M614K	with no effect
T395E	with no effect
G326A	with no effect
I546K	with no effect
I445K	with no effect
V461A	disrupting interaction strength
D630K	with no effect
N706A	with no effect
G425K	with no effect
H525K	with no effect

Variant	effect of a mutation on the interaction
H525A	with no effect
L341E	with no effect
K449E	with no effect
A504K	with no effect
A631K	with no effect
S466E	disrupting interaction strength
R506E	with no effect
S537E	with no effect
R464E	with no effect
D560E	with no effect
D560A	disrupting interaction strength
V596A	with no effect
H435E	with no effect
N408E	with no effect
N408A	with no effect
N408K	with no effect
E394A	with no effect
C534A	with no effect
D336A	with no effect
L685A	disrupting interaction strength
F711K	with no effect
T696K	with no effect
S720E	with no effect
F418A	with no effect
F418E	with no effect
A359K	with no effect

Variant	effect of a mutation on the interaction
A359E	with no effect
Y603E	with no effect
G462K	with no effect
N656A	with no effect
N656K	with no effect
K609A	with no effect
N651A	with no effect
N651E	with no effect
G717A	with no effect
S605A	with no effect
N663K	with no effect
S407A	with no effect
S407K	with no effect
G515A	with no effect
N671K	with no effect
T502E	with no effect
M483K	disrupting interaction strength
I404K	disrupting interaction strength
H456K	with no effect
R652K	with no effect
E401K	with no effect
A572K	with no effect
L478E	with no effect
E591K	with no effect
R699K	with no effect
S433E	with no effect

Variant	effect of a mutation on the interaction
C662E	with no effect
R703E	with no effect
I496A	with no effect
T397E	with no effect
T406K	with no effect
S704A	with no effect
T524E	with no effect
T555H	disrupting interaction strength
T555E	with no effect
N500K	with no effect
G683K	with no effect
H399E	with no effect
G541A	with no effect
K458A	with no effect
I695E	with no effect
D636A	with no effect
E334A	with no effect
L349E	with no effect
L349A	with no effect
G688E	disrupting interaction strength
V606A	with no effect
R480K	with no effect
R480E	with no effect
L363A	with no effect
F531E	with no effect
T487P	disrupting interaction strength

Variant	effect of a mutation on the interaction
L328A	with no effect
H665K	with no effect
E646K	with no effect
F460E	with no effect
H543A	with no effect
D700E	with no effect
F469S	disrupting interaction strength
L350E	with no effect
G421E	with no effect
V499E	disrupting interaction strength
D409A	with no effect
N358E	with no effect
N436A	with no effect
R635K	with no effect
K641A	with no effect
L348E	with no effect
L337A	with no effect
P378K	with no effect
P378E	with no effect
K691A	with no effect
G552K	with no effect
G552R	disrupting interaction strength
S474K	with no effect
S474E	with no effect
S493E	with no effect
L620K	with no effect

Variant	effect of a mutation on the interaction
F518E	with no effect
H607K	with no effect
I411K	with no effect
I411A	with no effect
I568E	disrupting interaction strength
T386A	with no effect
I422K	with no effect
I422E	with no effect
S332E	with no effect
G565E	with no effect
L655A	with no effect
R684A	with no effect
P447A	with no effect
T639E	with no effect
S388E	with no effect
K595E	with no effect
L563E	with no effect
Q477K	with no effect
E357A	with no effect
S482E	disrupting interaction strength
S482K	with no effect
I417A	with no effect
